# Reference: the nanobody polyreactivity screen of Harvey et al. (2022)
# Assay: yeast display, Sf9 membrane polyspecificity reagent, FACS + sequencing; frameworks hold sequencing errors
# In short: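 Genes from sorted yeast were amplified by colony PCR, read by MiSeq 2 × 250 sequencing and filtered on CDR length. These cells carried a synthetic nanobody library in Saccharomyces cerevisiae BJ5465 and were sorted by FACS into low and high (top ~1%) gates on anti-HA and streptavidin fluorescence. Polyreactivity is labelled according to the gate of origin.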
sequence,measurement,value
KVQLVESGGGLVQAGGSLRLSCAASGSIFTFNAMGWYRQAPGKERELVAAIRWSSGRTYYADSVKGRFTISRDNAKNTVYLQMNSLKPEDTAVYFCAAKDFGSFYESGYDYWGQGTQVTVSS,polyreactivity (PSR sort gate),high polyreactivity
QVQLVESGRGIVQAGGSLRLSCAASGIIFGGNAMVWYRQAPGKERELVARIRWGGGSTYYADSVKGRFTISRDNAKNTVYLQMNSLKPEDTAVYYCARTTSYLTSTRRYYYWGQGTQVTVSS,polyreactivity (PSR sort gate),high polyreactivity
QVQLVESGGGLVQAGGSLRLSCAASGITFDNNAMGWYRQAPGKEREFVADIDGSGGSTYYADSVKGRFTISRDNAKNTVYLQMNSLKPEDTAVYYCNAGYVHSFDYWGQGTQVTVSS,polyreactivity (PSR sort gate),low polyreactivity
QVQLVESGGGLVQAGGTLRLSCAASGFIFCTYAMGWSRQAPGKERELVAAISSRDVSTYYADSVKGRFTISRDNAKNTVYLQMNSLKPEDTAVYYCAAEDPYYYPYEYWGQGTQVTVSS,polyreactivity (PSR sort gate),high polyreactivity
QVQIVESGGGLVQAGGSLRLSCAASGFTFVYYAMGWYRQAPGKERELVAAISKRGGSTYYADSVKGRFTISRDNAKNTVYLQMNSLKPEDTAVYYCNAGYGRWQRHDYWGQGTLVTVSS,polyreactivity (PSR sort gate),high polyreactivity
QVQLVESGGGLVQAGGSLRLSCAASGFTFPYYAMGWYRQAPGTERELVASNSRSGSTNYADSVKGRFTISRDNAKNTVYLQMNSLKPEDTAVYYCAAQLYSRGGYWGHGTQVTVSS,polyreactivity (PSR sort gate),high polyreactivity
QVQLVESGGGLVQAGGSLRLSCAASGSTFNTYDMGWYRQAPGKERELVAAISFSDASTYYADSVKGRFTISRDNAKYTVYLQMNSLKPEDTAVYYCAADTRRITTVTTGEYGYWGQGTQVTVSS,polyreactivity (PSR sort gate),low polyreactivity
QVQLVESGGGLVQAGGSLRLSCASSGSIFYVYAMGWYRQAPGKERELVATIDWSGGSTYYADSVKGRFTISRDNAKNTVYLQMNSLKPEDTAVYYCAAYGLYGYRRRYRVSFTPYDYWGQGTQVNVSS,polyreactivity (PSR sort gate),low polyreactivity
QVQLVESGGGLVQAGGSLRLSCAASGRIIGNNAMGWYRHAPGKERELVATISSRGGSTYYAESVKGRFTISRDNAKNTVYFQMNSLKPEDTAVYYCKAYTTLAYDLDYWGQGTQVTVSS,polyreactivity (PSR sort gate),high polyreactivity
QVQLVESGGGLVQARGSLRLSCAATGSTFDKYAMGRYRQAPGKERELVAAISSSGTRTYYADSVKGRFTISRDNAKITVYLQMNSLKPEDTAVYYCDTGGSNKYYYWGQGTQVTVSS,polyreactivity (PSR sort gate),high polyreactivity
QVQLVESVGGLVQAGGSLRLSCAASGNTFSLYAMGWYSQAPGKERELVAAITWITGSTDYADSVKGRFTISRDNAKNTVYLQMNSLKPEDTAVYYCAADGDFSWFYSYETGWIEYDYCGQGTQVTVSS,polyreactivity (PSR sort gate),low polyreactivity
QVQLVESGGGLVQAGGSLRLSCAASGYIFYYYAMGWYRQAPGKERELVAAISSGGSTSYADSVKGRFTISRDNAKNTVYLQMNSLKPEDTAVYYCAAYKPWYVGLYPWYDYWGQGTQVTVSS,polyreactivity (PSR sort gate),low polyreactivity
QVQLVESGGGLVQAGGSLRLSCAASGRTFTFNAMGWYRQAPGKETELVAAISTSGGSTYYADSVKGRFTISRDNAKNTVYLQMNSLKPEDTAVYYCNTYPYYRAGGSDYWGQGTQVTVSS,polyreactivity (PSR sort gate),high polyreactivity
QVQLVESGGGLVQAGGSLRLSCAASGRTFRPYAMGWYRQAPGKERELVARITSGGGRTYYADSVKGRFTISRDNAKNTVYLQMNSLKPEDTAVYYCNKAIYSLYRDGYTNFDYWGQGTQVTVSS,polyreactivity (PSR sort gate),high polyreactivity
QVQLVESGGGLVQAGGSLRLSCAASGSIFFTYAMGWYRQAPGKERELVAVISSNGARTYYADSVKGRFTISRDNAKNTVYLQMNSLKPEDPAVYYCAARSQGNYGWGQGTQVTVSS,polyreactivity (PSR sort gate),high polyreactivity
QVQLVESGGGLVQAGGSLRLSCAASGRTFYANAMGWYRQAPGKERELVAAISRGGRTYYADSVKGRFTISRDNAKNTVYLQMNIMIPEDTSVYYCAARHTTTAVYSYYRADGGYWGQGTQVTVSS,polyreactivity (PSR sort gate),low polyreactivity
QVQLVESGGGLVQAGGSLRLSCAASGRTFSHYAMGWYRKAPGKERELVDTITRNGGITYYADSVKGRFTISRDNAKNTVYLQMNSLKPEDTAVYYCNTETYHVRRLFDYWGQGTQVTVSS,polyreactivity (PSR sort gate),low polyreactivity
QVQLVESGGGLVQAGGSLRLSCAASGRIFSRYTMGWYRQAPGKERELVAAISSRGGSTYYADSVKVRFTISRDNAKNTVYLQMNSLKPEDTAVYYCNTPSYSGSSPYDHWGQGTQVTVSS,polyreactivity (PSR sort gate),high polyreactivity
QVQLVESGGGLVQAGGSLRLSCAASGSIYGYYAMGWSRQAPGKERELVAAISWSDGSTYYADSVKGRFTISRDNAKNTVYLQMNSLKPEDTAVYYCAARFTPYITSDDGHYDYWGQGTQVTVSS,polyreactivity (PSR sort gate),low polyreactivity
QVQLVESGGGLVQAGGSLRLSCAASGLTFVYYDMGWYRQAPGKERELVADITDGSSTNYADSVKGRFTISRDNAKNTVYLQMYSLKREDTAVYYCAVDAVFQGSLGDYEYDYWGQGTQVTVSS,polyreactivity (PSR sort gate),low polyreactivity
QVQLVESGEGLVQAGGSLRLSCAASGITFGWYAMGWYRQAPGKERELVASISSSGSTNYADSVKGRFTISRDNAKNTVYLQMNSLKPEDTAVYYCNKDYLLSHYYIYVIEGDYWGQGTQVTVSS,polyreactivity (PSR sort gate),low polyreactivity
QVQLVESGGGLVQAGGSLRLICAPSGSIFTYYAMGRYRQAPGKEKELVAAISQSGGTTYYADSVKGRFTISRDNAKNTVYLQMNSLKPEDTAVSYCAARAPSSFDTQYYYWGQGTQVTVSS,polyreactivity (PSR sort gate),low polyreactivity
QVQLVESGGGLVQAGGSLRLSCAASGRSFAPYAMGWSRQAPGKERELVAAISLSTTRTYYADSVKGRFTISRDNAKNTVYLQMNSLKPEDTAVYYCAAETFTGYFFLRHDYWGQGTQVTVSS,polyreactivity (PSR sort gate),high polyreactivity
QVQLVESGGGLVQAGGSLRLSCAASGFTFYKYTMGWYRQAPGKERELVAAISARGGSTYYADSVKGRFTISRDNAKNTVYLQMNSLKPEDTSVYYCAADFWRTYGLGYDYWGQGTQVTVSS,polyreactivity (PSR sort gate),high polyreactivity
QVQLVESGGGLVQAGGSLRLSCAASGFIFVRYAMGWYRQAPGKEREFVASITRSDGSTYADSVKGRFTISRDNAKNTVYIQMNSLKPEDTAVYYCNKDNHDVELPVEFEYWGQGTQVTVSS,polyreactivity (PSR sort gate),high polyreactivity
QVQLVETGGGLVQAGGSLSLSCAASGRTCRFYAMGWYRQAPGKERELVGAISWNGGRTYYADSVKGRFTISRDNAKNSVYLQMNSLKPEDTAVYFCNARAYGSRKFEYWGQGTQVTVSS,polyreactivity (PSR sort gate),high polyreactivity
QVQLVESGGGLVQAGGSLRLSCAASGIIFTVYDMGWYRQPPGKERELVAAITWSGGSTYYADSVKGRFTISRDNAKNTVYLQMNSLKPEDTAVYYCIKVGRVWDVETDGDYDYWGQGTQVTVSS,polyreactivity (PSR sort gate),low polyreactivity
QVQLEESGGGLVQAGGSLRLSCAAAGLTFDVYAMGWYRPAPGNEMELVAAISSIGGSTYYADSVKGRFTISRDNAKNNVYLQMYSLKPEDTAVYYCSAAISLYSYDYWGQGTQVTVSS,polyreactivity (PSR sort gate),low polyreactivity
QVQLVESGGGLVQAGGSLRLSCAASGRIFTFYAMGWYRQAPGKERELVATIRNGGSTNYADSVKGRFTISRDNAKNTVYLQMNSLKPEDTAVYYCNTYYYGRRRYGYWGQGTQVTVSS,polyreactivity (PSR sort gate),high polyreactivity
QVQLVESGGGLVQAGGSLRLSCAASGSIFNYYGMGWYRQAPGKEREFVAAITSNGGTTYYADSVKGRFTISRDNAKNTVYLQMNSLKPEDTAVYYCADRPRYYWRGYDYWGLGTQVTVSS,polyreactivity (PSR sort gate),high polyreactivity
QVQLVESGGGLVQAGGSLCLSCAASGITFLFYAMGWYRQAPGKERELVAAITYSGGSTYYADSVKGRFTISRDNAKNTVYLQMNSLKPEDTAVYYCAADVWWSYYRYDYWGQGTQVTVSS,polyreactivity (PSR sort gate),low polyreactivity
QVQLVESGGGLVKAGGSLRLSCAASGSTFRRYAMGWYRLAPGKERELVAAITIGGSTYYADSVKGRFTISRDNAKNTVKLKMNSLKPEDTAVYSCNAGKTYLGDYWGQGTQVTVSS,polyreactivity (PSR sort gate),high polyreactivity
QVQLVESGGGLVQSGGSLRLSCAASGSTFTLYAMGWYRQAPGKERELVAAIRASVGRTYNADSVKGRFTISRDNAKNTVYLQMNSLKPEDTAVYYCNAYGRYGKFRVEYDYWGQGTQVTVSS,polyreactivity (PSR sort gate),low polyreactivity
QVQLVESGGGLVQAGGSLRLSCAASGSIFQAYAMGWYRQAPGKERELVASISQSGDSTYYADSVKGRFTISRDNAKNTVYLQMNSLNPVDTAVYYCAAVQYGHRRGRVSVRRRLDYWGQGTQVTVSS,polyreactivity (PSR sort gate),low polyreactivity
QVQLVESGGGLVQAGGSLRLSCAASGSILKFNAMGWYRQAPGKERELVAAITRGTNTYYADSVKGRFTISRDNAKNTVYLQMNSLKPEDSAVYYCAARQPYNAFGYFYWGQGTQVTVSS,polyreactivity (PSR sort gate),low polyreactivity
QVQLVESGGGLVQAGGSLRLSCAASGRTFPSNVMGWYRQAPGKEREFVAAITTRGGNTRYADSVKGRFTISRDNAKNTVYLQMNSLKPEDTAVYYCAAKVKPGYDYWGQGTQVTVSS,polyreactivity (PSR sort gate),low polyreactivity
QVQLVESGGGLVQAGGSLRLSCAASGITLYYYAMGWYRQAPGKERELVAAISTSGGTTYYADSVKGRFTISRDNAKYTVYLQMNSLKPEDTAVYYCAARRRAFGSTYNYWGQGTQVTVSS,polyreactivity (PSR sort gate),high polyreactivity
QVQLVESGGGLVQAGGSLRLSCAASGSTFTNYAMGWYRQAPGKERELVAAINNDRTNYADSVKGRFTISRDNAKNTVYLQMNSLKPEDTAVYYCAAQWRVYGYKISRRNYWGQGTQVTVSS,polyreactivity (PSR sort gate),high polyreactivity
QVQLVESAGGLVQAGRSHRLSFAASGSIFYHNAMGWYRQAPGKERELVAAISGRGGSTYYADSVKGRFTISRDNAKNTVYLQMNSLKPEDTAVYYCAADARYQNGGLYYWGQGTQVTVSS,polyreactivity (PSR sort gate),high polyreactivity
QVQLVESGGGLVQAGGSLRLSCAASGSTFITNSMGWYRQAPGKERELVAAITYSTGGTYYADSVKGRFTISRDNAKNTVYLQMNSLKPEDTAVYYCAALLYFFLYDYWGQGTQVSVSS,polyreactivity (PSR sort gate),low polyreactivity
QVQLVESGGGLVQAGGSLRLSCAASGSIFPGYAMGWYRQAPGKERELVATITWSGGSTYYADSVKWRFTISRDNEKNTVYLQMNCLKPEDTAVYYCNADSNWYYQWNYYGLYDYWGQGTQVTVSS,polyreactivity (PSR sort gate),low polyreactivity
QVQLVESGGGLVQAGGSLRLSCAASGRTFSVNAMGWYRQAPGKEREFVAAITGSTGSTFYADSVKGRFTISRDNAKNSVYLQMNSLKPDDTAVYYCAAGPWFYYWGQGTQVTVSS,polyreactivity (PSR sort gate),low polyreactivity
QVQLVESGGGLVQAGGSLRLSCAASGITFYEYAMGWYRQAPGKERELVASISGSGGSTFYADSVKGRFTISRDNAKNTVYLQMNSLKPEDTAVYYCAAYKEPYYEEYGYWGQGTQVTVSS,polyreactivity (PSR sort gate),low polyreactivity
